Assay: soluble on expression in E. coli; label from the status in PepcDB or PDB records

| Sequence | soluble on expression in E. coli |
| --- | --- |
| MNSKSAQGLAGLRNLGNTCFMNSILQCLSNTRELRDYCLQRLYMRDLHHGSNAHTALVEEFAKLIQTIWTSSPNDVVSPSEFKTQIQRYAPRFVGYNQQDAQEFLRFLLDGLHNEVNRVTLRPKSNPENLDHLPDDEKGRQMWRKYLEREDSRIGDLFVGQLKSSLTCTDCGYCSTVFDPFWDLSLPIAKRGYPEVTLMDCMRLFTKEDVLDGDEKPTCCRCRGRKRCIKKFSIQRFPKILVLHLKRFSESRIRTSKLTTFVNFPLRDLDLREFASENTNHAVYNLYAVSNHSGTTMGGHYTAYCRSPGTGEWHTFNDSSVTPMSSSQVRTSDAYLLFYELASPPSRMAAALEHHHHHH | soluble |
| MNSLLFVYGTLRKHEKNHHLLAQSACINEQARTKGSLFAAKEGPTVVFNDEDEGYIYGEVYEADELCIHKLDQFFQGYHKQTVFVETDVGIKIALIYFMNKDGCAGFTKISSGDWKEHQMISKSKNPIYYFAYGSCMDNARFQKAGVDHYFQDPVGRAVLKGYTTRFTLKREDGSRADMLEDGGTTEGVLYRIPYSALSYLYKREGVESLTYRPAFVDVEAGGRHYKDCLTFLVLQKEAEIAPPQHYQIEIERGAELYLSPEFTEKLKRHMNSLPKGLEHHHHHH | soluble |
| MNSPLPDVALTEVSSALIALDWVGMQGVEVPLTLGEQGATHPVHAYADLQVDLTDPSVKGIHMSRLYRLLDGFAEHQVLTPETLSALLEAMVESHVDCHSSGARITLTFNLLCRRPALVTEGLSGWKSYPVKLEAVWRAGRLCLDVSADITYSSTCPCSAALSRQLLEEAFVARFGRQSFVDPMQVAAWLRENASYATPHSQRSVATVQVRVAEQATEMGLMALIDTVEQALGTPVQTAVKRADEQAFARLNGQNLMYVEDAARKIQQALEGRYPASSVSVRHFESLHPHDAAAQTSSYLS | not soluble |
| MNSQNPDDHEDTTVVGFEVPVSPVSSYNNVYSSTEDETRDPPAVPPHLQHSLLGNQGSMELAYAPQNVVLNHLYIENRDAPRSVVALGFSHRFRTKFVTVVIYKPVQRRGSANV | not soluble |
| MNTCRGQHGPRRPEAGAAGHRAHVDGGQRGPGGQQEPDWHKAGATIPRLPSPSGSPWRREQDPAPGEPPHIPAHGNRPGGQEIRPRIPGLDREARPAVPPTHSPSYRIRLAGSEPSLVQAAPGQAVQLFCPGNIPPEFQAGWQKEGRPISSNRYQLQADGSLIISRLRPEDAGIYSCGSHRPGHEPQEIQLRVTGGDMAVLPEGQPRHFPEPRNPDLGHGPPHRGTGAEAGGHRVLSPSHPRPATRLRLDRTQPGVVDASPGQRIRLTCRAEGFPVPTIEWQRDGQLVSSPRHQVQPDGSLVISRVDVEDGGYYSCVAFNGQDRDQRWVQLRVLRELTITGLPPAVTVAEGDTARLLCVVAGESVNIRWSRNGLPIQADGHRVHQSPDGTLLIHNLRPRDEGSYTCSAFRGSQAVSRSTEVKVALPAPAAQSRDLGKDCIDQPELANCALILQAQLCGNEYYSSFCCASCSRFQPNAQPVWQQG | soluble |
| MNTIAFKEIFLPIRPSIRAVCHAFLRDDEEAEDATQEVYLRLWEARMRLDGLDNPRAYAIRIARNYCLNLIRKASNSPYPTSLEAAEVQEVSETHGGEADLLLSEQIGRLRQWLRGVSELYRTVFAMSHFRRLSNGEIAERLGLTEGNVRVILCRLRREAKEVMKDDA | not soluble |
| MNTKLPLDLFNQAKRSASQDQPALFSWVTELDELVSPVKLFKKAGTAFKGERFFWQNPEMTLTMTGFGVTKQFLAEKKKDAFLGLQEKIEKRLRTSVTNATVDATGPVYFGGFAFDPERDTEKEWQSFKDGLFYLPLFMLTNKDGKSYLTVNLSIYSDDTESKLEAVFNQWQKIIHQEVNEAEMALLTDFKEIGKDHFLETASEIIDMINHSEDVKKVVLARRMGLRFQRQVDSAIILENMLATQENSYFFLIEKGTGVFFGATPERLLAVNGDEIHSSCVAGSTERGATEEADEALGNALLKDAKNLREHSYVVQMMEETLKPFTTGLSLSSQPVLLKNRDIQHLYMNITAKKKPDVSMLEMVKALHPTPALGGLPQKMGLAIIRMKEEMDRGFYGAPIGWVDLKGSGEFAVAIRSGLIVDSQGLIYAGCGIVGDSVPKEELQETAVKFQPMLRVLGGIKK | not soluble |
| MNTQYLQYVREQLMVATADLSGETKGQLLAWLENAQFDTKNYPRKKQRIWDEETESWITLNNPPIPGKQSLAKGSAIPLVKPVEYSTASWRRAVLSLDEHYKAWLLWNYSENTCWEHQVEITQWGWSAFAAQLDGKKMAGKTQERLRALIWLAAQDVKSELAGREVYQYKELAGLVGVSEKNWSETFTRHWLTMRAIFLRLDQASLLSVSESRSEQVAFNLYALN | not soluble |
| MNVFYTREGVGDVLLVSLKPAADEERTFVRQGDVVRIMSERTGETVGYNIFSASSYYPFSGNGPLEVNEELVGVINDILAKNGFDEPIEADLSPKFVVGYVKEKTKHPNADKLSVCQVDVGGEVLQIVCGAPNVAEGQKVVVAKIGAVMPNGLVIQESELRGVRSSGMICSARELGLPNAPQEKGILVLSDEYEVGQPFVF | not soluble |
| MNVMLSKNYMMEKYNMSTTVGLPQFSHIKIEHFKSHLDALLKNHLEEIDRLLKENHHYTWDNLIYPLDSLADELERFWSPFAHMHAVMDSETIRESYEACLPLLSAYDAAIGHNQDLYEAIKSIDQHSLNPAQKKIIADSIQDFEL | not soluble |
| MNVSVVIPALNEEATVADVVALSRRGSDEVIVIDSDSTDATAARAKAAGASVVNWRDVVSLPPIPGKGEALWRGVAAARGDVVVFLDADLTEISPTIVEDLARPFIDDSVMLAKAAYTRGDASGGGGRVTELTARPLLEAFFPELGFVRQPLGGEYAIRRSAALDLPFVGGYGVEVGLLIDVFRCFGAASIVEVEAGHRGHRHRPLRELAPMARVVASTILQRAGVASGLDGVGQRPAISSLESGVGKVLEHHHHHH | soluble |
| MNVTTPEVAFREYQTNCLASYISADPDITPSNLILQGYSGTGKTYTLKKYFNANPNLHAVWLEPVELVSWKPLLQAIARTVQYKLKTLYPNIPTTDYDPLQVEEPFLLVKTLHNIFVQYESLQEKTCLFLILDGFDSLQDLDAALFNKYIKLNELLPKDSKINIKFIYTMLETSFLQRYSTHCIPTVMFPRYNVDEVSTILVMSRCGELMEDSCLRKRIIEEQITDCTDDQFQNVAANFIHLIVQAFHSYTGNDIFALNDLIDFKWPKYVSRITKENIFEPLALYKSAIKLFLSTDDNLSENGQGESAITTNRDDLENSQTYDLSIISKYLLIASYICSYLEPRYDASIFSRKTRIIQGRAAYGRRKKKEVNPRYLQPSLFAIERLLAIFQAIFPIQGKAESGSLSALREESLMKANIEVFQNLSELHTLKLIATTMNKNIDYLSPKVRWKVNVPWEIIKEISESVHFNISDYFSDIHE | soluble |
| MNVYRNQLIQLLPEITELKNLTTLDLSLNKLTQLPPEIGELNNLKTLYSSSNQLTQLPLEITKLKNLTELYLSSNLMIRLPLEITELKNLTTLNVYRNQLIQLPSKITELKNLKKLDLSRNQLAQLPPEIAELKNLTTLDLSRNQLAQLPPEIAELKNLTTLDLFENPLISLEHHHHHH | not soluble |
| MNYELLTTENAPVKMWTKGVPVEADARQQLINTAKMPFIFKHIAVMPDVHLGKGSTIGSVIPTKGAIIPAAVGVDIGCGMNALRTALTAADLPENLAELRQAIETAVPHGRTTGRCKRDKGAWENPPFNVDAKWAELEAGYQWLTQKYPRFLNTNNYKHLGTLGTGNHFIEICLDESEQVWIMLHSGSRGIGNAIGTYFIDLAQKEMQDQLETLPSRDLAYFMEGTEYFDDYLRAVAWAQLFASLNRDAMMENVVTALQSITQKTVRQPQTLAMEEINCHHNYVQKEQLFGEEIYVTRKGAVSARAGQYGIIPGSMGAKSFIVRGLGNEESFCSCSHGAGRVMSRTKAKKLFSVEDQIRATAHVECRKDAEVIDEIPMAYKDIDAVMAAQSDLVEVIYTLRQVVCVKG | not soluble |
| MNYHQYYPIDVVNGPGTRCTLFVSGCVHQCRGCYNQSTQRLDSGVLFTQEAEDKIINDLNDTRIKRRGLSLSGGDPLHPANVPHILKIVKRVREECPGKDIWVWTGYTLAELDDAQREVVQYIDVLIDGKFEQDKKDLNLEWRGSSNQIIHRFTDILEHHHHHH | not soluble |
| MNYHQYYPVDIVNGPGTRCTLFVSGCVHECPGCYNKSTWRVNSGQPFTKAMEDQIINDLNDTRIKRQGISLSGGDPLHPQNVPDILKLVQRIRAECPGKDIWVWTGYKLDELNAAQMQVVDLINVLVDGKFVQDLKDPSLIWRGSSNQVVHHLRLEHHHHHH | soluble |
| MNYKSPVYNVTPIHYTKLQANNYNPNTVPATELKLLEKSIWEDGFTQPIVCYPLENSDKYEIIDGFHRYTIMQTSKRIREREKELLPVVILEKDTVNRIASTIRHNRARGFHNVELMSSIVGELADSGMSDSWIMKNIGMDANEILRLKQVSGLTHLFLDKEFSKASD | not soluble |
| MNYQDNSLKSLKLGQKTEYASQYDRTLLQPVPRALNRDGLGITQNQPFTIGADIWTAYEISWLNEKGLPQVAIADIYLDYQSQNLIESKSFKLYLNSFNQSKFADFNAVQQTMQRDLSECAQGDVKVRLNPMAVYDSQKIDHLQGDCIDEQDIEITSYEFNANWLKDCVSDEIVEEKLVSHLLKSNCLITNQPDWGTLHIHYVGKKINQEKLLRYVVSFRQHNEFHEQCVERIFCDLMHYAKPEKLTVYARYTRRGGLDINPFRSNFENLPENLRLARQ | soluble |
| MNYRELMQKKNVRPYVLMARFGLEKENQRSTREGLLATTEHPTVFGNRSYHPYIQTDFSETQLELITPVANSGTEMLRFLDAIHDVARRSIPEDEMLWPLSMPPQLPTKDEEIKIAKLDQYDAVLYRRYLAKEYGKRKQMVSGIHFNFEYDQALIQQLYDEQSEVTDCKQFKTKVYMKVARNFLRYRWLITYLFGASPVSEDRYFRVYDDQPQEPVRSIRNSTYGYRNHDNVKVSYASLERYLEDIHRMVENGLLSEEKEFYAPVRLRGGKQMSDLPKTGIRYIELRNLDLNPFSRLGIVEDTVDFLHYFMLYLLWTDEKEEADEWVKTGDIFNEQVALGHPHETIKLIAEGDRIFSEMIDMLDALGIRKGKEVVGKYYQQLRNPQDTVSGKMWTIIQENSNSELGNIFGNQYQSMAFERPYQLAGFREMELSTQIFLFDAIQKGLEIEILDEQEQFLKLQHGEHIEYVKNANMTSKDNYVVPLIMENKTVTKKILSAAGFHVPGGEEFSSFIEAQEAHLRYANKAFVVKPKSTNYGLGITIFKEGASLEDFTEALRIAFKEDTAVLIEEFLPGTEYRFFVLDNDVKAIMLRVPANVTGDGKHTVEELVAAKNSDPLRGTNHRAPLELIQLNDLEKLMLKEQGLTIYSVPEKEQIVYLRENSNVSTGGDSIDMTDVIDDSYKQIAIEAVAALGAKICGIDLIIPDKDVKGTRDSLTYGIIEANFNPAMHMHVYPYAGQGRRLTMDVLKLLYPEVVQ | not soluble |
| MPAFFVKAGAKKSGGGAAATRKRKNGGKSDAKSEEMAAKMSRRQKIMAATEIHSDEEDSLAGSAAASEAGSDVEYEDAHERNYREAKKLLDKIQSTTTTQEEVAEKLRDDAVARTGTQVKRVADVVELEDDLEISYKPHRLSPLCVAFSPDAKYVISCGKESSIVKFNVGTRKVVGIIKRTKKRAGVPEEPTNAHYGVIFTVAVSPDQKFIASGGFDQVVKAPKNMKILFQIWNFDSLEHIKDLSGHRGPIFSLTFQLKTNNLYSASQDRSVKMWDIDQLGLVDTMYGHQDGVQQIGVLSKQRVATVGGRDRSARLWKVEDESQLMFSGLQNCVSLDCVAMINEEHFATGSADGSIALWSFWKKRALHVRKQAHGTQNGSGRWIVALAVLPYSDLLASGSNEGELKLWKISENFRQLTPFFSYSIPGFINSINFAPNGKSIVVGAGKEHKDGRWWVDREARNQVVILPIKYTDGSDNNDVTIGDKTASGTVSGASAGGGGGIESGDESEEEEEELEEELEEEEEEIEE | not soluble |

From the DeepSol protein solubility set
